This passage reports Km results from PMC3317640, “A Novel Enzymatic System against Oxidative Stress in the Thermophilic Hydrogen-Oxidizing Bacterium Hydrogenobacter thermophilus” (PLoS ONE, 2012).

What is called Km is the substrate concentration at which the rate is half of its maximum.

Substrate in data set [1]: CC(C)(C)OO
The experiment in a line: hydroperoxide removal, FOX1 (xylenol orange) assay, Michaelis-Menten. It is filed as biochemical, Hydrogenobacter thermophilus. Particulars: 0.5 mM NADPH and FNR as electron donor system, 50 mM sodium phosphate pH 6.0, 50°C, anaerobic.

Substrate in data set [2]: CC(C)(OO)c1ccccc1
The description is as above. It is filed as biochemical, Hydrogenobacter thermophilus. The note with it: 0.5 mM NADPH and FNR as electron donor system, 50 mM sodium phosphate pH 6.0, 50°C, anaerobic.

B1: ferriperoxin (Fpx) (Hydrogenobacter thermophilus TK-6) (protein)
chain: MKSLAGTKTLECLKHAFAGESQANRRYLYFARKADIEGYPDIANVFRETAEGETGHAFGHLEFLEKYGGGDPATGKPIGSMEQNLEAAIAGETYEYTEMYPGFAKTAREEGFDDIAEWFETLARAEKSHAGRFQKALESLKA
notes: full-length untagged (own start and stop codon, pET21c NdeI-HindIII), E. coli BL21(DE3); N-terminus MKSLAGTKTL; diiron holoprotein
Take B1: the Km was determined as 1.3 ± 0.3 mM in data set [1] and 1.1 ± 0.2 mM in data set [2].
